Test results as given in the domain aggregation screens of Martell et al. (2025).

Assay: soluble fraction after stress (log2 fold change); higher = more stays soluble; pooled small domains, quantitative proteomics
Settings: stress: pH 4
Method in brief: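 Pooled custom libraries of small protein domains were subjected to pH 4 and measured by high-throughput quantitative proteomics. The log2 fold change in soluble amount per domain is reported, higher values meaning more remained soluble. This is used as a measure of aggregation propensity.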

Sequence | soluble fraction (log2)
HMQIKNVDYGTFLDMLDEKNVKEVEIEDEQIVFTDNADPTGYYTTGRMEDPDLVDRLHNSGATFSAI | -0.841
HMGGVEWLTHPIGPRDSLQVLARAGLEARPTSDGDYEIYGQERWPQRDQARLMGWLRRFGQWVWQALYDK | -0.386
HMHVSLSGKIHSELRKLILNGELKAGERLPSEPDLAHELGVSRNSLREAIGLLQREGLLLKKHGIGTFVTD | 0.183
HMKKVKVPNVVGMSLKEARDALSAVNIAVNQVAGSVEDKSVVTEQSLKAGDEVDEGSSLNLTTEYK | 0.412
HMDNEYDKVYQAALSKLEGYPRSSITTAVIKDVVAQTIKYFEIKNFGYEDTIINQLQSAFTVKSSS | 0.0114
HMIDQIAEQLQQRLAVDTAFATIQRDYPDVIANKDIELLTAIKVNQKIAEGASRASAMLESAKEVYETL | -0.329
HMSSRSLSYSDFIERVDAGQVSKVVMDGERLVVVGQDGTSYVTIKPPGDQVTENLSRELISKGVEVEAEPQ | ≥ 0.43
HMPSYYKELQNYSPENPVVKKRKVHPDVVNAIKYLAEITDGNPMLIKAYAQMILAHVFTTMPLIDKSV | 0.22
HMGGEAEVLQSIDEGREVEVRSVAADGSAEVIYRGARWRARAAVGSLAAGRWTIGRVDGTELVLEK | 0.215
HMARDSYNGVQRTISTLLGQGNYDRAYDVAVGARGQMSKQQWSDVAKRIYEVSGIKIDDSVKY | -0.0224
HMGKKGPELNDNEKIIFNIISKENSMNLDDLKNRTELSNKQWDKAIKGLRSHELVNIEKIDDQLLIHL | -0.598
HMEIYIDGNKYVGELRNGKPNGRGTITYTGDGSKYVGEWKNGKRYGRGKMAYTNGTTKEGVWKDDEFLYAT | 0.377
HMKELTPEQLQHNWNNLRQFIDVNFSGDRLGGLNKMYDYFEERMMFAPASGKQHYHNAFAGGYVEHVMHV | 0.0505
HMLKETGVITASVLNVREDIGTSSNIVAQLKKGMEVNILESRAIAGSETWYRIDAGSIKGWIFGDYI | -2.29
HMRKIVEGVLTKKEGKWYLLTDIETYKISDASAEYHKAELNDRASALIPAQNPKVPFASLEKVFN | 0.186
HMIESVMVGIKELLGDTIDQKYEKYIRLGGIPSDEVDEFNSVFSAYEKVNGNHNGKKKYDYVMNNLPIIPV | -1.54
HMHQVHKIDGVKYYLHLVEKGNTLYGISKQYNVSVERIEKANTEALSDGLKENQTLLIPVTSDNKKT | 0.0091
HMGKFMVQVGAFSRINGAEITRTKYDNLGTHKAIIKNLDGMNRVFLTGFLSEDEARDFIASSNLKGAFIIR | -0.0731
HMDNVQLRNFAIKATEASIIYLDQEQRNFFWYNNNKKLMTVPFDENPYSAFAAYLKTDEGSEVYKAIEKKF | -0.504
HMNTAALSLQRRNEIKKWLLEEKTLTVAALSNRFNVTYETIRRDLEILEKEGFLKKVYGGAALNERV | 0.244
HMQPLGHDLTERELDVLALMVTGMNNSEIADKLVVSRSTIKYHVSNILSKLQATSRTEAVAYALQQNLVH | -1.41
HMKQDYYSILGVMRDASQEEIKRAYLDAAQRLHPDRNTSAGDTEMFLDVQQAYEVLSNPKRRAQYDATLP | 0.169
HMGKGVDKIMKMADDYSYGKIAGKTVDVMTAKLFQAAYNKAPQKAKDKVDKMNEKQLYIFMMNLWKRF | 0.0998
HMGESYGPVRRGETLWSIAEKVKPAGVSTQKELAAIYAANPQAFIRGDINLLKAGAELRLPSPEAL | -0.0107
HMGFDTVVEKVLGLITSRPMTSRDIQMTLGRSREHTSRLMNRLYKEGLVDRNTSSKPFSYIITEKGREKI | 0.424

Sequence | soluble fraction (log2)
HMANSLLVTAQAGGQKLFNFLKRSLHAENNEIHRWIRTGQVRINKKRTKAFDIVHENDEIRIPPFALNR | -0.053
HMNGEDVTDAIRLPQISQYASVVSAYPGVRAFLLEMQRDFARKGSVIMDGRDIGTVVLPEAEVKIFLT | 0.278
HMDLQAAWLQTVRHLLAHTEDVGDRFAEEARRIHYGEEPHRGIRGQATPEERLALREEGIETMSIPV | -0.204
HMDENTEQESQTVVVPDVTGKSLSEAASILREAGLDYLAEQTGTVVTKQMPLPDAEVLINTTVLLYTDSE | -0.456
HMIMMTLGEKIRSIRKAKGMTQQELAEKLNTTKQTIGKYEKGIVTNLPLFRINELARALSTTPAYLTGW | ≥ 0.43
HMAPAYELTEEETKIIEILKANENIDLNELKSQAALSGKKWDKSMKNLAKYNLTKVTVDGDAKTVAYLA | -0.516
HMTKTKFLSKDMILSAMSRTKSNRAAARYLSVSFVHYKKYAREYKDETSGVSLWEKHKNQSGTGIPK | 0.0318
HMSTINGIEKYLSSGLIPYIGPKTAKRIVEKFGLDTLEIIQYNPERLKEIEGIGDKKLKKIVEAFEEQG | -0.333
HMGSPKLVIKNGQVDYQVLKKEKLDLLELTSLLRGQNTFSIREIEYAIIEPNGVITVIKKPEYQSVVKGDL | -1
HMLPDLLNGRVIPSPEKVIRARLNRGVWELLVQWVGRAPSDATWENLLEFKSAYPSVQLEDALF | -1.1
HMIDFDEIEILSSSKIEKIENSEYLKSSIFEKDSNQYIYRLSFENRDQLKNFKKEIEDIDQIKKIDVTY | -0.665
HMITANNYFNEVERIGVETLPETLRKGHDLVVRSTNSGTNWSNYQNNESIRKVIDLYLQKLNEYVSTST | -0.676
HMGPVALGVTDGATYFSSVTITFRRGTAVLDGEPIASGHTVYKSGAHSLTLTAGGKTRTIAFTMDT | 0.139
HMRKPLDQSWVPDDDAMKILTNSGIEKEFIKNEIPEFILYWSDKGEISDSWNTKFISQIRRQWAKNQ | -0.465
HMPNDYRKKLEILAKEKGAEYLHTMLTEVDPKSALQIHTNNIKRTIRALEFYHQTGMKISEHNEAEREK | 0.0478
HMGARHPLPYPFARAHGLLLEADGERSTLWASTNVSPAALSEVMRKYAVDVIEEEPPETLSQRIAAAYAA | -0.763
HMKNDIQLKHDVEEELQWDPAVDASRFAVQAKDGVVTLSGGVDTFADKHAAEEAIRRVAGVTALVIHVDV | -0.271
HMAVRTELLALPAGWHGDASRLSTALAALQGVREAVVIASEGVAYLKVHGHDWDRDGARELLQN | -0.199
HMAILDTALDVLSMNLKDNYTSFQILRQAAIAGKIAFNLTEKNPLGGVIEVELTGDDLETWIEAATW | -0.697
HMNINHEINIKSKKKISILENNPNLSQFYLTKNPDQYNYNLVFSDKSELNKLKEKLESDNEVEDIDIRYG | -0.195
HMVVVVELTENEKAVQDVLTKNEGSLEISDLKTKLELSGKQWDKALKGLAKHGITQVAKVDGVVTVSL | -1.4
HMTIDANAIEKMVLDLIGEHPNEWGRYRDGDKKVQGFFVGQIMKATSGQADGKIVNQILSQHAEA | 0.126
HMNTGLSEREHEIAQLVLQGRTYAEIGAELFISPRTAEHHIGQIRRRLAATSRSDLLAKLRVAMNTTEGAG | -0.567
HMKKASLSTVEKKLMKQNYSNDTMENRLARVESYMFGTVFSSDDTQTRIDRISSAYNAQKSS | -0.197
HMASIGTATVTADNLRLRSEAGTGAETLTMAPKGAEVTVEEDAGDGWYKVTYGDTEGYMSGEWLKITLA | -0.0742

Sequence | soluble fraction (log2)
HMEDNLMIVVQVNGKKRSEIKVSIDASEDQIKQTALAEPNVQKFVEGHTIRKMILVPSKLLNIVV | ≥ 0.43
HMRSFRIGGLVEQGSIARDGQSLTVRFAVTDLAHKIPVTYTGLLPDLFKEGKGVVAEGKLGPDGVFHASQV | -0.705
HMDTFSVAIGTKTPDGSSVGEVKTISRDELLLLEDEVAEDPTKEIIFTGGTKDSAQAALDGWIDYNTNLAS | -0.716
HMETVRLSVDAQGAYYWNEQRVDDSALPDLLREASGRKPQPDLHIRGDKAVRYERVAEAMAAAQRAGLKKI | -0.178
HMAIRLIKASREFNVGISTIVEFLEKKGHAIDSDPNSKIPDELYQLIEKEFQTEGSVKKAAKQI | -0.335
HMNKTVKIPNVSNLSREDAESVLKENGISVNSEVKQIESDTIEKGKVVKTDPSIGTSVKKGRSITIYVSSG | 0.134
HMVRTIKILGIKHNINLYYKNVKVPTMNVKNQTLEIILPNKYKKFQEEQILKVLTQKLYDKIAETEIEKIK | ≥ 0.43
HMDAIIVPSVLKMKPFEAEEKLSALGLRMKINDTVYIDNMKPGVIVEQSPTAEEDVKTDRVIYVIVNA | -0.139
HMNTDVEKQKVFTALFDDYFRRNSMTSLEKQLFLTALKTNFQNAQKTVAKDHPYYATYSLIISAIENYR | -0.936
HMSQIILSARSGHAALRHRLGELGYTFADKEFDDIYERFLEVADQKKEVYDEDLESIVQERQRD | -0.559
HMITLPDFVGKDVETVKAWAKENGITLIVNKVEDSAKKDTVISQTPTTYDYSKIMKGSSFTVNVAKE | 0.0768
HMNNVDQLIEQYKTLPGGLLPLLHAIKHALGYIPESTVGSIAKGFNLSRAEVHGVISFYHDFNTQP | -0.365
HMELARLRPELDGNDIMRILGVPPGPVVGRAYTYLLELRINQGELGRERVTQLLLDWAAAEGISA | -1.8
HMDSVEYRVITGDDVNFRKGPSTDYASLGKLNKGYKVEYISETNSWSKVKYNGQTGYVYSKYVAQT | -0.262
HMESILDDFPGLGAVRRAALLEHFGDIDRLRAASAVEITEVDGFGDVLARELHDFLHRPKPDA | -0.768
HMEPEVSNTYEKVLGMHHFSSTRSHQLHDLVRQANALELSLGEIESIAQSAKDGAQVISDIKHWMEPNRQ | -0.185
HMVGDLPPQELRVFELIGDGLSNREIADEMILAEKTIKNYVTSLLQKLGMQRRTEAAAFAARLDER | -0.607
HMAQTTKWREIHKVKRKETIFGIARDNGLTVDELIEANPEMTKPGYELKKGDFIYIPFPSKNIDTNAGTQT | -0.627
HMQKYSTIIGVIELRQSGIGYRTTKKRYNIGNSTVTLIMNRFHELGLSLEELKAMPPKKVEEAFYPPE | -0.0306
HMSSKFKIVGEILSIKKSDILYIIEILSNNEVVKATAVEDEIKDLKIGDKILLSSKAFNPIVNK | -1.09
HMKRSFGYIRLLPSKRYQASYIGPDSQRHAAPETFTRKMDAEGWLSAERRLIEWDQWTSPEQRAAQARLD | 0.127
HMDTNKMLIVNSISNGMKRLQELQDPQLAEIQKTFSGLDEQKATSAQLAQINNIINNRIAEIEG | 0.191
HMNRMKLLREQHNLSQTDLAKILNISRQSYNFYENEKRDPDTTMLIRIADFFNVSLDYLLGRTNN | -0.0385
HMEVLEGFIEDIKFKSEESGYTVAKLNNRNKSIVIVGTMPFISEGQHVKLTGEWKIHQKFGAQFNVKELEE | -1.37
HMQNLISSDEAKNIALQHANLTDNQVTFIKVSKDYDDGIHIYEVEFHYNNREYNYDINAINGTILSYEQ | -0.173
